For test [1], the target named is 16055 SOSIP.v5.2 (HIV-1 (clade C isolate 16055)). Description: negative-stain EM; PGT145-purified protein, 20-50 ug/mL on carbon-coated Cu grids, 2% uranyl formate, 2D class averages; gp120-gp41 protomers to trimer.
For test [2], the target named is 16055 SOSIP.v8.3 (HIV-1 (clade C isolate 16055)). Described as above.

The stoichiometry N is a count of units in the complex or per binding partner. Turning to 16055 SOSIP.v5.2 (complex), in test [1], the percent native-like trimers worked out at 72% and the stoichiometry N is 3.

Take 16055 SOSIP.v8.3 (complex): in test [2], the percent native-like trimers was greater than 95% and the stoichiometry N worked out at 3.

The values above are taken from publication PMC7873233.
